The values that follow are results of earlier work, collected in PMC11987431.

For the data set, the target named is IL-6 receptor (Rattus norvegicus) (UniProt P22273).
Chain of UniProt P22273 (P22273 20-364, chain 1 of 2): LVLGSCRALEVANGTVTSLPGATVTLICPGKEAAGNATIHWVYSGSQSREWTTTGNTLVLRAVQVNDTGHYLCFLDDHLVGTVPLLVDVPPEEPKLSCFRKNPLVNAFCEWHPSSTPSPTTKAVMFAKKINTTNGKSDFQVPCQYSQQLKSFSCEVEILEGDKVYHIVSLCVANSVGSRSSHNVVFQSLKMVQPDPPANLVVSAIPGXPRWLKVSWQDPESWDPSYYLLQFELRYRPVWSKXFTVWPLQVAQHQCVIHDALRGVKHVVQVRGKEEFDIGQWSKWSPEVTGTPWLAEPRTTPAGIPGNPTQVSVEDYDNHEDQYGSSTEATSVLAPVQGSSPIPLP
Chain of UniProt P22273 (P40190 23-618, chain 2 of 2, further chain): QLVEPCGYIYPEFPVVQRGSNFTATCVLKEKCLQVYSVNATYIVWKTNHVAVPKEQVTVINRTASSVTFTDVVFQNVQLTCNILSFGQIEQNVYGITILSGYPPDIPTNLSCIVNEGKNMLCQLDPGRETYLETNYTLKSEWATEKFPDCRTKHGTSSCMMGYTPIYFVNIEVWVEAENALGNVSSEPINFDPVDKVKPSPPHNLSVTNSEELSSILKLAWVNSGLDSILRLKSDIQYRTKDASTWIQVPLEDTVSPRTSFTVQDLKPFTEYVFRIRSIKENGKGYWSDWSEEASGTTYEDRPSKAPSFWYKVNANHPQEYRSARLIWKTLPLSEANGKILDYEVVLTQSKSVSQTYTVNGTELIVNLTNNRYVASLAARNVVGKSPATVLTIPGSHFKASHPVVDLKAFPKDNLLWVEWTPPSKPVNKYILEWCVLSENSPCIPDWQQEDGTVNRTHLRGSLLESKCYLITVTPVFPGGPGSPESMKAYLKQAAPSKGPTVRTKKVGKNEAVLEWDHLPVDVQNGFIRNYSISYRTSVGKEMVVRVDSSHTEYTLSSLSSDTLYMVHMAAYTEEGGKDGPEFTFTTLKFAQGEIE

Chain of IL-6 (P20607 25-211): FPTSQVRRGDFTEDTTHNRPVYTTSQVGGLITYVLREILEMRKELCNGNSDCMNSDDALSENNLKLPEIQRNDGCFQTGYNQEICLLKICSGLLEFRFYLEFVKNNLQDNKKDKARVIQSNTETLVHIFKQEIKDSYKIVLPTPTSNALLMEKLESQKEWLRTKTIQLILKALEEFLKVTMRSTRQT

One may read the Kd as the constant that tells how readily two partners part at equilibrium. As to IL-6 (from UniProt P20607), the dissociation constant Kd was 0.015 nM.
